{
  "source": "paper PMC3623455",
  "key": {"[1]": {"substrate": "OC[C@@H](O)[C@H](O)[C@@H](O)CO", "test": "purified protein", "conditions": "100 mM Tris-HCl pH 8.0, 1 mM NADP+, polyol oxidation"}, "[2]": {"substrate": "O=C(CO)[C@H](O)[C@@H](O)CO", "test": "purified protein", "conditions": "50 mM Tris-HCl pH 7.0, 0.5 mM NADPH, sugar reduction"}},
  "data": [
    {"protein": "LXR3 (Trichoderma reesei QM6a) (protein) KNGAFPHDNAAVPNVERVLPLFSLKGRTAIVSGAGAGIGLAVAQAFAEAGANVAIWYNSNKQAVTSAEDIAKTYGVKCKAYQVNVTSAEAVDKAITEIIKEFNGRLDVFVANSGITWTEGAFIDGSVESARNVMSVNVDGVMWCAKSAGAHFRRQKEEGTTIDGKPLDNFIAGSFIATASMSGSIVNVPQLQAVYNSSKAAVIHFCKSLAVEWTGFARVNTVSPGYIITEISNFVPPETKTLWKDKIVMGREGRVGELKGAYLYLASDASSYTTGLDMIVDGGYSLP", "values": [
      {"measurement": "kcat", "setting": "[1]", "result": 1, "unit": "s⁻¹"},
      {"measurement": "kcat", "setting": "[2]", "result": 11.4, "unit": "s⁻¹"}
    ]}
  ]
}
